Laboratory results reported in patent US20140186823, “MUTANT PORES” (OXFORD NANOPORE TECHNOLOGIES LIMITED, published 2014).

What was measured:
Conditions in all cases: chain copies: 8 (stated)
MS-(B1-I105L)8 = MS-(B1-I105L)8 (Mycobacterium smegmatis, UniProt A0QR29 SEQ:1-184, I105L); assay: current range; Phi29 unzipping, +180 mV
Procedure: (§1) The runs were conducted at room temperature at an applied potential of +180 mV. Current levels observed when the DNA is in the enzyme bound state were indexed and the current level, its duration and variance were recorded.
(§2) This pre-incubation mix was added to 900 μL of buffer in the cis compartment of the electrophysiology chamber to initiate capture of the polymerase-DNA complexes in the MspA nanopore (to give final concentrations of DNA=0.5 nM, Enzyme=0.1 μM). Experiments were carried out at a constant potential of +180 mV. Current levels observed when the DNA is in the enzyme bound state were indexed and the current level, its duration and variance were recorded.

MS-(B1-I105Y)8 = MS-(B1-I105Y)8 (Mycobacterium smegmatis, UniProt A0QR29 SEQ:1-184, I105Y); assay: current range; Phi29 unzipping, +180 mV
Procedure: as §1, §2

MS-(B1-I89Y-D90S)8 = MS-(B1-I89Y-D90S)8 (Mycobacterium smegmatis, UniProt A0QR29 SEQ:1-184, I89Y,N90S); assay: current range; Phi29 unzipping, +180 mV
Procedure: as §1, §2

MS-(B1-S103G)8 = MS-(B1-S103G)8 (Mycobacterium smegmatis, UniProt A0QR29 SEQ:1-184, S103G); assay: current range; Phi29 unzipping, +180 mV
Procedure: as §1, §2

MS-(B1-D90Q)8 = MS-(B1-D90Q)8 (Mycobacterium smegmatis, UniProt A0QR29 SEQ:1-184, N90Q); assay: current range; Phi29 unzipping, +180 mV
Procedure: as §1, §2

MS-(B1-N86T)8 = MS-(B1-N86T)8 (Mycobacterium smegmatis, UniProt A0QR29 SEQ:1-184, N86T); assay: current range; Phi29 unzipping, +180 mV
Procedure: as §1, §2

MS-(B1-L88Q)8 = MS-(B1-L88Q)8 (Mycobacterium smegmatis, UniProt A0QR29 SEQ:1-184, L88Q); assay: mean S.D. of current levels (B1 baseline 3.26)
Procedure: as §2

MS-(B1-L88N)8 = MS-(B1-L88N)8 (Mycobacterium smegmatis, UniProt A0QR29 SEQ:1-184, L88N); assay: mean S.D. of current levels (B1 baseline 3.26)
Procedure: as §2

MS-(B1-L88S)8 = MS-(B1-L88S)8 (Mycobacterium smegmatis, UniProt A0QR29 SEQ:1-184, L88S); assay: mean S.D. of current levels (B1 baseline 3.26)
Procedure: as §2

B1: FIG. 12 DNA substrate (dsDNA)
DNA 1: TTTTTTTTTTTTTTTTTTTTTCCCCCCCCCCCCCCTATTCTGTTTATGTTTCTTGTTTGTTAGCCCCCTTTGATAAGACAAATACAAAGAACAAACAATCGGCCCTTTAGTGGAGCGAGTGCGAGAGGCGAGCGGTCAA
DNA 2: GTATCTCCATCGCTGTTGACCGCTCGCCTCTCGCACTCGCTCCACTAAAGGGCCGATTGTTTGTTCTTTGTATTTGTCTTATCAAAGGGGGCTAACAAACAAGAAACATAAACAGAATAG
DNA 3: CAGCGATGGAGATAC
modifications: iSp9 and 3' Cholesteryl-TEG on SEQ 23
In the case of B1, the activity (MS-(B1-I105L)8) is reported as 42 pA, the activity (MS-(B1-I105Y)8) is reported as 45 pA and the activity (MS-(B1-I89Y-D90S)8) is reported as 67 pA. It also gave an activity (MS-(B1-S103G)8) of 54 pA, an activity (MS-(B1-D90Q)8) of 70 pA and an activity (MS-(B1-N86T)8) of 58 pA. It also gave an activity (MS-(B1-L88Q)8) of 3.3, an activity (MS-(B1-L88N)8) of 3.22 and an activity (MS-(B1-L88S)8) of 3.12.
